Entries after “also recorded” stand apart in the source; their conditions may differ.
Key:
CYP3A [1] = experiment: Effect of rifampin on brentuximab vedotin; type: in vivo, human; settings: brentuximab vedotin 1.8 mg/kg alone, geometric mean (%CV), n=11
CYP3A [2] = experiment: Effect of ketoconazole on brentuximab vedotin; type: in vivo, human; settings: geometric mean (%CV); for ADC Cmax: serum, n=16
[3] = Safety assessments: adverse events and laboratory abnormalities; type: in vivo, human
[4] = system: antitherapeutic antibodies (ATA); experiment: Antitherapeutic antibodies; type: in vivo, human
[5] = system: relapsed/refractory systemic ALCL; settings: 1.8 mg/kg IV every 3 weeks for up to 16 cycles; cited from earlier work
CYP3A [6] = experiment: Effect of brentuximab vedotin on midazolam PK; settings: brentuximab vedotin 1.8 mg/kg; midazolam as probe substrate

Substance: brentuximab vedotin: ADC directed to human CD30: MMAE conjugated to the anti-CD30 antibody cAC10 through a protease-cleavable linker
- ADC t1/2 (CYP3A [1]): 5.87 (66) d
- ADC Cmax (CYP3A [1]; serum): 36.74 (34) μg/mL
- ADC t1/2 (CYP3A [2]; brentuximab vedotin 1.2 mg/kg alone, n=11): 5.70 (33) d
- ADC Cmax (CYP3A [2]; brentuximab vedotin 1.2 mg/kg alone): 22.57 (23) μg/mL
- ADC Cmax (CYP3A [2]; brentuximab vedotin 1.2 mg/kg with ketoconazole): 22.38 (70) μg/mL
- Adverse events: Any event ([3]; Ket arm, both cycles (n = 19)): 19 (100) n (%)
- Adverse events: Diarrhea ([3]; Ket arm, both cycles (n = 19)): 6 (32) n (%)
- Adverse events: Fatigue ([3]; Ket arm, both cycles (n = 19)): 8 (42) n (%)
- Adverse events: Headache ([3]; Ket arm, both cycles (n = 19)): 4 (21) n (%)
- Adverse events: Nausea ([3]; Ket arm, both cycles (n = 19)): 9 (47) n (%)
- Adverse events: Neutropenia ([3]; Ket arm, both cycles (n = 19)): 3 (16) n (%)
- Adverse events: Pruritis ([3]; Ket arm, both cycles (n = 19)): 4 (21) n (%)
- Adverse events: Pyrexia ([3]; Ket arm, both cycles (n = 19)): 7 (37) n (%)
- Adverse events: Vomiting ([3]; Ket arm, both cycles (n = 19)): 6 (32) n (%)
- Adverse events: Any event ([3]; Ket arm, post-ket (N = 19)): 16 (84) n (%)
- Adverse events: Diarrhea ([3]; Ket arm, post-ket (N = 19)): 6 (32) n (%)
- Adverse events: Fatigue ([3]; Ket arm, post-ket (N = 19)): 5 (26) n (%)
- Adverse events: Headache ([3]; Ket arm, post-ket (N = 19)): 4 (21) n (%)
- Adverse events: Nausea ([3]; Ket arm, post-ket (N = 19)): 5 (26) n (%)
- Adverse events: Neutropenia ([3]; Ket arm, post-ket (N = 19)): 3 (16) n (%)
- Adverse events: Pruritis ([3]; Ket arm, post-ket (N = 19)): 3 (16) n (%)
- Adverse events: Pyrexia ([3]; Ket arm, post-ket (N = 19)): 2 (11) n (%)
- Adverse events: Vomiting ([3]; Ket arm, post-ket (N = 19)): 6 (32) n (%)
- Adverse events: Any event ([3]; Ket arm, pre-ket (N = 19)): 16 (84) n (%)
- Adverse events: Diarrhea ([3]; Ket arm, pre-ket (N = 19)): 1 (5) n (%)
- Adverse events: Fatigue ([3]; Ket arm, pre-ket (N = 19)): 4 (21) n (%)
- Adverse events: Headache ([3]; Ket arm, pre-ket (N = 19)): 0 n (%)
- Adverse events: Nausea ([3]; Ket arm, pre-ket (N = 19)): 5 (26) n (%)
- Adverse events: Neutropenia ([3]; Ket arm, pre-ket (N = 19)): 0 n (%)
- Adverse events: Pruritis ([3]; Ket arm, pre-ket (N = 19)): 1 (5) n (%)
- Adverse events: Pyrexia ([3]; Ket arm, pre-ket (N = 19)): 6 (32) n (%)
- Adverse events: Vomiting ([3]; Ket arm, pre-ket (N = 19)): 3 (16) n (%)
- Adverse events: Any event ([3]; Mid arm, both cycles (n = 16)): 14 (88) n (%)
- Adverse events: Diarrhea ([3]; Mid arm, both cycles (n = 16)): 3 (19) n (%)
- Adverse events: Fatigue ([3]; Mid arm, both cycles (n = 16)): 3 (19) n (%)
- Adverse events: Headache ([3]; Mid arm, both cycles (n = 16)): 4 (25) n (%)
- Adverse events: Nausea ([3]; Mid arm, both cycles (n = 16)): 2 (13) n (%)
- Adverse events: Neutropenia ([3]; Mid arm, both cycles (n = 16)): 1 (6) n (%)
- Adverse events: Pruritis ([3]; Mid arm, both cycles (n = 16)): 1 (6) n (%)
- Adverse events: Pyrexia ([3]; Mid arm, both cycles (n = 16)): 0 n (%)
- Adverse events: Vomiting ([3]; Mid arm, both cycles (n = 16)): 2 (13) n (%)
- Adverse events: Any event ([3]; Rif arm, Cycle 1 (N = 21)): 18 (86) n (%)
- Adverse events: Diarrhea ([3]; Rif arm, Cycle 1 (N = 21)): 2 (10) n (%)
- Adverse events: Fatigue ([3]; Rif arm, Cycle 1 (N = 21)): 1 (5) n (%)
- Adverse events: Headache ([3]; Rif arm, Cycle 1 (N = 21)): 3 (14) n (%)
- Adverse events: Nausea ([3]; Rif arm, Cycle 1 (N = 21)): 6 (29) n (%)
- Adverse events: Neutropenia ([3]; Rif arm, Cycle 1 (N = 21)): 6 (29) n (%)
- Adverse events: Pruritis ([3]; Rif arm, Cycle 1 (N = 21)): 3 (14) n (%)
- Adverse events: Pyrexia ([3]; Rif arm, Cycle 1 (N = 21)): 6 (29) n (%)
- Adverse events: Vomiting ([3]; Rif arm, Cycle 1 (N = 21)): 2 (10) n (%)
- Adverse events: Any event ([3]; Rif arm, Cycle 2 (N = 20)): 17 (85) n (%)
- Adverse events: Diarrhea ([3]; Rif arm, Cycle 2 (N = 20)): 3 (15) n (%)
- Adverse events: Fatigue ([3]; Rif arm, Cycle 2 (N = 20)): 4 (20) n (%)
- Adverse events: Headache ([3]; Rif arm, Cycle 2 (N = 20)): 2 (10) n (%)
- Adverse events: Nausea ([3]; Rif arm, Cycle 2 (N = 20)): 2 (10) n (%)
- Adverse events: Neutropenia ([3]; Rif arm, Cycle 2 (N = 20)): 5 (25) n (%)
- Adverse events: Pruritis ([3]; Rif arm, Cycle 2 (N = 20)): 2 (10) n (%)
- Adverse events: Pyrexia ([3]; Rif arm, Cycle 2 (N = 20)): 0 n (%)
- Adverse events: Vomiting ([3]; Rif arm, Cycle 2 (N = 20)): 1 (5) n (%)
- Adverse events: Any event ([3]; Rif arm, both cycles (n = 21)): 20 (95) n (%)
- Adverse events: Diarrhea ([3]; Rif arm, both cycles (n = 21)): 4 (19) n (%)
- Adverse events: Fatigue ([3]; Rif arm, both cycles (n = 21)): 5 (24) n (%)
- Adverse events: Headache ([3]; Rif arm, both cycles (n = 21)): 5 (24) n (%)
- Adverse events: Nausea ([3]; Rif arm, both cycles (n = 21)): 6 (29) n (%)
- Adverse events: Neutropenia ([3]; Rif arm, both cycles (n = 21)): 7 (33) n (%)
- Adverse events: Pruritis ([3]; Rif arm, both cycles (n = 21)): 4 (19) n (%)
- Adverse events: Pyrexia ([3]; Rif arm, both cycles (n = 21)): 6 (29) n (%)
- Adverse events: Vomiting ([3]; Rif arm, both cycles (n = 21)): 2 (10 n (%)
- Adverse events: Any event ([3]; Total, both cycles (N = 56)): 53 (95) n (%)
- Adverse events: Diarrhea ([3]; Total, both cycles (N = 56)): 13 (23) n (%)
- Adverse events: Fatigue ([3]; Total, both cycles (N = 56)): 16 (29) n (%)
- Adverse events: Headache ([3]; Total, both cycles (N = 56)): 13 (23) n (%)
- Adverse events: Nausea ([3]; Total, both cycles (N = 56)): 17 (30) n (%)
- Adverse events: Neutropenia ([3]; Total, both cycles (N = 56)): 11 (20) n (%)
- Adverse events: Pruritis ([3]; Total, both cycles (N = 56)): 9 (16) n (%)
- Adverse events: Pyrexia ([3]; Total, both cycles (N = 56)): 13 (23) n (%)
- Adverse events: Vomiting ([3]; Total, both cycles (N = 56)): 10 (18) n (%)
- treatment-emergent peripheral neuropathy ([3]; all patients (N = 56), 2 treatment cycles): 18%
- low hemoglobin, change from Grade 1 or 2 to ≥ Grade 3 ([3]; all patients, 5 patients): 9%
- low lymphocyte counts, change from Grade 1 or 2 to ≥ Grade 3 ([3]; all patients, 5 patients): 9%
- low platelet counts, change from Grade 1 or 2 to ≥ Grade 3 ([3]; all patients, 5 patients): 9%
- elevated ALT, change from Grade 1 or 2 to ≥ Grade 3 ([3]; all patients, 6 patients): 11%
- low white blood cell count, change from Grade 1 or 2 to ≥ Grade 3 ([3]; all patients, 7 patients): 13%
- peripheral neuropathy events ([3]; ketoconazole arm, after ketoconazole, 1 patient): 5%
- elevated AST (adverse event) ([3]; ketoconazole arm, after ketoconazole, 2 patients): 11%
- incidence of adverse events ≥ Grade 3 ([3]; ketoconazole arm, before ketoconazole dosing, 4 patients): 21%
- elevated AST (adverse event) ([3]; ketoconazole arm, before ketoconazole, 1 patient): 5%
- peripheral neuropathy events ([3]; ketoconazole arm, before ketoconazole, 2 patients): 11%
- elevated ALT (adverse event) ([3]; ketoconazole arm, both before and after ketoconazole, 1 patient): 5%
- patients with at least 1 positive postbaseline ATA result ([4]; PK-evaluable patients in the ketoconazole arm): 8 of 16
- patients with at least 1 positive postbaseline ATA result ([4]; PK-evaluable patients in the rifampin arm): Five of 14
- patients free of confirmed ATA at baseline but positive at one or both postbaseline timepoints ([4]; all patients): Eighteen
- titers of all confirmed positive ATA results ([4]; with one exception (one patient 3125 prior to second dose)): ≤ 125
- objective response rate [5]: 86%
- inhibition or induction of CYP3A in humans (conclusion) (CYP3A [6]): neither inhibitors nor inducers of CYP3A; also recorded: neither inhibit nor induce CYP3A
